T1: C-terminus biotinylated monomeric human CD32a^H (FcγRIIa, histidine-131 variant), recombinant (human, UniProt P12318 34-218, limits assumed, C-terminus biotinylated (site-specific))
T1 construct: Captured on neutravidin (ELISA plates or CM5 chips); Bought reagent; also called CD32a-H131
T1 sequence (looked up): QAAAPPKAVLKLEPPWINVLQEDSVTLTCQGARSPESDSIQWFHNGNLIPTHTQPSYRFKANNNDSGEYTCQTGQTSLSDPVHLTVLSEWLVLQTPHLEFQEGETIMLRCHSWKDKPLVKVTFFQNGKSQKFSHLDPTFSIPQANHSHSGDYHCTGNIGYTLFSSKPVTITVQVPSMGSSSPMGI


What was measured:
[1] = biological target: T2, His-tagged soluble mouse FcRn (recombinant, insect cell produced) (mouse, UniProt Q61559 22-290); test: method not stated; acidic pH
[2] = biological target: T2, His-tagged soluble mouse FcRn …; test: method not stated; neutral pH
[3] = biological target: T1, C-terminus biotinylated monomeric human …; test: SPR, estimated steady state KD, monomeric IgG, pH 7.4

T2 sequence (Q61559 22-290): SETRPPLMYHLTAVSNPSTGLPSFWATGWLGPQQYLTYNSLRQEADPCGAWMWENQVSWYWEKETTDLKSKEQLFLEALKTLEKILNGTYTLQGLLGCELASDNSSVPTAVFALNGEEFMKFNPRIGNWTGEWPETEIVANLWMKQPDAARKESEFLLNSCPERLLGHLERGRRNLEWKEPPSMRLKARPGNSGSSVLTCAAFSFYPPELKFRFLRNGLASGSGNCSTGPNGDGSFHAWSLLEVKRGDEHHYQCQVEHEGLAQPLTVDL

Kd [1] [nM]	Kd [2] [nM]	Kd [3] [µM]	Binder
1.2	7.4	2.8	anti-NIP hIgG1-M252Y/S254T/T256E/H433K/N434F (hIgG1^MST/HN) (antibody) ASTKGPSVFPLAPSSKSTSGGTAALGCLVKDYFPEPVTVSWNSGALTSGVHTFPAVLQSSGLYSLSSVVTVPSSSLGTQTYICNVNHKPSNTKVDKKVEPKSCDKTHTCPPCPAPELLGGPSVFLFPPKPKDTLYITREPEVTCVVVDVSHEDPEVKFNWYVDGVEVHNAKTKPREEQYNSTYRVVSVLTVLHQDWLNGKEYKCKVSNKALPAPIEKTISKAKGQPREPQVYTLPPSRDELTKNQVSLTCLVKGFYPSDIAVEWESNGQPENNYKTTPPVLDSDGSFFLYSKLTVDKSRWQQGNVFSCSVMHEALKFHYTQKSLSLSPGK
–	–	4.8	anti-NIP hIgG1-I253A/H310A/H435A (hIgG1^IHH) (antibody) ASTKGPSVFPLAPSSKSTSGGTAALGCLVKDYFPEPVTVSWNSGALTSGVHTFPAVLQSSGLYSLSSVVTVPSSSLGTQTYICNVNHKPSNTKVDKKVEPKSCDKTHTCPPCPAPELLGGPSVFLFPPKPKDTLMASRTPEVTCVVVDVSHEDPEVKFNWYVDGVEVHNAKTKPREEQYNSTYRVVSVLTVLAQDWLNGKEYKCKVSNKALPAPIEKTISKAKGQPREPQVYTLPPSRDELTKNQVSLTCLVKGFYPSDIAVEWESNGQPENNYKTTPPVLDSDGSFFLYSKLTVDKSRWQQGNVFSCSVMHEALHNAYTQKSLSLSPGK
